Test: yeast display, Sf9 membrane polyspecificity reagent, FACS + sequencing; frameworks hold sequencing errors
Outline: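 Synthetic nanobody libraries on Saccharomyces cerevisiae BJ5465 were galactose-induced for 36–48 hours, stained 1 hour at 4 °C with 10% biotinylated, detergent-solubilized Sf9 membrane reagent and enriched on streptavidin microbeads. FACS then separated cells into low and high (top ~1%) gates by anti-HA (expression) and streptavidin (reagent binding) fluorescence. Genes were colony-PCR amplified, MiSeq 2 × 250 sequenced and CDR-length filtered. A clone's polyreactivity label is that of its gate of origin.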

Row | Sequence | polyreactivity (PSR sort gate)
1 | QVQLVESGGGLVQAGGSRRLSCAASGFTFQDYAMGWYRQAPGKERELVAAISKSGGRTYYADSVKRRFTISRDNAKKTVYLEMNSLKPEETAVYYCAALPLYSQDYDYWGPGTQVTVSS | high polyreactivity
2 | QVHLVESGAGLVQAGGSLRLSCAASGRVFYYYAMGWYRQAPGKEREFVATISWSGVRTYYADSVKGRFTISRDNAKNTVYLQMNSLKPEDTAVYYCNADYYSPKFPSGMNYWGQGTQVTVSS | high polyreactivity
3 | QVQLGESGGGLVQAGGSLRLSCAASGRTFYWYTMGWYRQAPGKESELVAAISTRGVRTYYADSVKGRFTISRDNAKNTVYLQMNSLKPADTAVYYCNNYVAYDYWGQGTQVTVSS | low polyreactivity
4 | QVQLVESGGGLVQAGGSLRLSCAASGSIFGLYAMGWYRQAPGKETELVAAINWNGGDTYYADSVKGRFTISRDNAKNPVYLQMNSLKPEDTAVYYCAAEQYRYGIRRRHYDYWGQGTQVTVSS | low polyreactivity
5 | QVQLVESGGGLVKAGGSLRLSCAPSGSTFKSYSMGWYRQAPGIECELVAAITSGGRTYYADSVKGRFTISRDNAKNTVYLQMNSLKPEDTAVYYCAALRVQQVKSYYYWGQGTQVTVSS | high polyreactivity
6 | QVQLEESGGGLVQAGGSLRLCCAASGSTFWAYVMGWYRQAPGKEMELVAAISKSGVRTHYADSVKGRFTISRDNAKNTVYLQMNSRKPEDTAVYYSAAGGVGNLDDYWGQGTQVTVSS | high polyreactivity
7 | QVQLVESGGGLVQAGGSLRLSCAASGSIFSSYAMVWYRQAPGKERELVAAIDGSGGSTYADSVKGRFTISRDHAKNTVYLQMNSLKPEDTAVYYCAADSYSGRYYWWEYDYWGQGTQVTVSS | low polyreactivity
8 | QVQLVESGGGLVQAGGSLRLSCAASGRTFVYYAMGWYRQAPGKERELVAAISSRGGSTYYADTVKGRFTISRDYAKNSVYLQMYSLKPEDTAVYYCAAVIGPERPTSPFDFWGQGTQVTVSS | high polyreactivity
9 | QVQLVDSGGGLVQAGGRLRLSCAPSGSIIIDNAMGWYRQAPGKERELVAAISSSGGSTHYADSVKGRFTISRDNAKNTVYLQMNSLKPEDTAVYYCAAKRGWRGGYYWGQGTQVTVSS | high polyreactivity
10 | QVQLVESGGGLVQAGGILRLSCAASGSTFRLNAMVWYRQEPGKERELVASIRWSVGITYYADSVKGRFTISLDNSKNTFYLQMNSLKPEDTAVYYCANGDTNWRYYYWGQGTQVTVSS | high polyreactivity
11 | QVQLVESGGGLVQAGGSLRLSCAASGFTFSTYDMGWYRQAPRKERELVAAIDYIDGSTYYADSVKGRFTISRDNAKNTVDLQMNCLKPEDTAVYYCAAHYYYDEFGYWGQGTQVTVSS | low polyreactivity
12 | QVQLVESGGGLVQAGGSLRLSCAASGSIFSYYAMGWDRQAPGKERELVASISWNGTSTYYADSVKGRFTISRDNAKNTVYLQMNSLKPEDTAVYYCNGRFIYRGTYDYWGQGTQVTVSS | low polyreactivity
13 | QVQLVESGGGLVQAGGSHRLSCAASGSTFAGNAMGWYRQAPGKERELVAAISGSGGITYYADSVKGRFTISRDNAKNTVYLQMNSLKPEDTAVYYCNAYYWFSRYGYWGQGTQVTVSS | high polyreactivity
14 | QVQLVESGGGLVQAGGSLRLSCAASGLTFGYYAMGWYRQAPGKERELVAVISGGGGTHYADSVKGRFTISRDNAKITVYLQMNSLKPEDTAVYYCAARYRAQQIARYYYWGQGTQVTVSS | high polyreactivity
15 | QVQLVESGGGLVQAGGSLRLSCAASGSTFPYNAMGWYRQAPGKERELVAAITSSGRTNYADSVKGRFTISRDNAKNTDYLQMNSLKPEDTAVYYCAAVRWYAHRVDYWGQGTQVTVSS | low polyreactivity
16 | QVQLVETGGGLVQAGGSLRLSCAASGRIFKVYAMGWYRQAPGKERELDAAITSRGGSTYYADSVKGRFTISRDNAKNTVYLQMNSLKPEDTAVYYCAAARGLPSNKYYYWGQGTQVTVSS | high polyreactivity
17 | QVQLVESGGGLVQAGGSLRLSCAASGFTFVTNAMGWYRQAPGKERELVAAISWNDDDTYYADSVKGRFTISRDNAKNTVYLQMNSLKPEDTAVYYCAKDEYRVKWWGWDIYDYWGQGTQVTVSS | low polyreactivity
18 | QVQLVESGGGLVQAGGSLRLSSAASGIIFPGYAMVWYRQAPGKERELVAAISSGGDTYYADSVKGRFTISRDNAKNTVYLQMNSLKPEDTGVYYCTAAQLSSDRTSNYGYYPWYEYWGQGTQVTVSS | low polyreactivity
19 | QVQLVESGGGLVQAGGSLRLSCAASGSTFHRYTMGWYRQAPGKERELVAAISSGGRTYYADSVKGRFTISRDNAKNTVYLQMNSLKPEDTAVYYCNSRYPRQYWGGYDYWGQGTQVTVSS | high polyreactivity
20 | QVQLVESGGGLVQAGGSLRLSCAASGRIFCVNAMGWYRQAPGKERELVAAINVSGGITYYADSVKGRFTISRDNAKNTVYLQMKSLKPEDTAVYYCAAVHWTWYTYYGPDYDYWGQGTQVTVSS | low polyreactivity
21 | QVQLVESGGGLVQAGGSLRLSCAASGIIFYAYVMGWYRQAPGKERELVAAITVSGGSTYYADSVKGRFTISRDNAKNTVYLQMNSLKPEDTAVYYCAADWNFYQRTFDSWGQGTQVTVSS | low polyreactivity
22 | QVQLVESGVGLVQAGGILRLSCAASGSSFRGYAMGWYRQAPGKERELVAAISSRGARTHYADSVKGRFTISRDNAKNTVYLQMNRLKPEDTAVYYCNKRQVFVSTGEYEFDYWGQGTQVTVSS | low polyreactivity

Row | Sequence | polyreactivity (PSR sort gate)
23 | QVQLVESGGGLVQAGGSLRLSCAASGRIFTTNAMGWYRQAPGKDRELVAAITYSGGTTYYADSVKGRFTISRDNAKNTVYLEMNSLKPEDTAVYYCAADVKFSTPYDYWGQGTQVTVSS | low polyreactivity
24 | QVQLVESGGGLVQAGGSLRLSCAASGSTFIGYAMGWYRQAPGKERELVAGIRWSGGRTYYADSVKGRFTISRDNAKNTVYLHMNSLKPEDTAVYYCNARFYASAKGYDYWGQGTQVTVSS | low polyreactivity
25 | QVQLVESGGGLVPAGGSLRLSCAASGRTFIKYAMGWYRQAPGKERELVAAISRSAGSTYYADSVKGRFTISRDNAKNTVYLQMNSLKPEDTAVYYCNAVTSSYLRFDYWGQGTQVSVSS | high polyreactivity
26 | QVQLVESGGGLVQAGGSLRLSCAASGNIFYKYDMGWYRQAPGKERELVATISSDANTKYADSLKGRFTISRDNAKNTVYLQMNSLKPEDTPVYYCNVKDPVVRGALRDPTEYDSWGQGTQVTVSS | low polyreactivity
27 | QVQLVESGGGLVQAGGSLRLSCAASGLTINYYAMGLYRQAPGKERELVAAITWRGGSTYYADSVKGRFTISRDNAKNTVYLQMNSLKPEDTAVYYCAADPGPYGYYYWGQGTQVTVSS | low polyreactivity
28 | QVQLVESGGGLFQAGGSLRLSCAASGNTFPYYAMGWYRQAPVKERELVAAISRSGGTTYYADSVKGRFTISRDNAKNTVYLQMTSLKPEDTAVYYCAALYGSRSTYHMDDYWGQGSQVTVSS | high polyreactivity
29 | QVQLVESGGGLVQAGGTLRLSCAASGSTFEYYAMGSYRQAPGKEREFVAAISSGPSTTYADSVKGRFTISRDNSKNTVYLQMNSLKPEDTAVYYCARRDGTTQALFGYDYWGQGTQVTVSS | low polyreactivity
30 | QVQLQESAGLVQAGGLRLSCAASGSVSYQEAMGWYRQAPGKERELVATMSFGANTNYADSVKVRFTISRDNAKNTVYLQMNSLKPEETAVYYCAAESLFDDYYGYWGQGTQVTVSS | low polyreactivity
31 | QVQLVESGGGLVQAGGSLRLSCAASGFTFGSYAMGWYRQAPGKEREFVAAISLGGARTYYADSVKGRFTISRDNAKNTVYLQMNSLKPEYTAVYDCAATVRGVGYRYYYWGQGTQVTVSS | high polyreactivity
32 | QVQLVESGGGLVQAGGSLRLSCAASGSTFAKYAMGWYRQAPGKERELVAVITSGGSTYYADSVKGRFTISRDNAKNTVYLQMNSLKPEDTAVYYCAAAVRAWARRYDYWGQGTQVTVSS | high polyreactivity
33 | QVQLVESGGGLVQAGGSLRLSCAASGRTFTYYAMGWYIQAPGKERELVAAISSGGRTYYADSVKGRFTISRDNAKNTVYLQMNSLKPEDTAVYYCAADAYRSPWRLYGSRFGYWGQGTQVTVSS | high polyreactivity
34 | QVQLVESGGGLVQAGGSLRLSCAASGRTFRSIAMGWYRKAPGKERELVAAITSSGGRTYYADSVKGRFTISRDNAKNTVYVQMNSLTPEDTAVYYCNAGRQHPPRYSSYDYWGQGTQVTVSS | high polyreactivity
35 | QVQLVESGGGLVQAGGSLRLSCAASGSTFAYNTMGWYRQAPGKDRELVAAISQRGGSTYADSVKGRFTISRDNAKNTVYLQMNSLKPEDNAVYYCAADGYTYKFDYWGQGTQVTVSS | low polyreactivity
36 | QVQLVESGGGLVQAGGSLRLSCAASGNTFYGYAMGWYRQAPGKERELVASITLSGDSTYYSDSVKGRFTISRDNAKNTVYLQMNSLKPEDTAGYYCAFDGYWYGGIFYYGGQGTQVTVSS | low polyreactivity
37 | QVQHVESGGGLVQAGGSLRLSCAASGRIFGTNAMGWYRQAPGKERELVAAINGSDSSTYYADSVKGRFTISRDNAKNTVYLQMNSLKPEDTAVYYCNADWSGAPERSTDGYDYWGQGTQVTVSS | low polyreactivity
38 | QVQLVESGGGLVQAGGSLRLSCAASGSTISGYAKGWYRQAPGKERELVATISRGGSTNYADSVKGRFTISRDNAKNTVYLQMNSLKPEDTEVYYCAAVVSDYVWRYEYWGQGTQVTVSS | low polyreactivity
39 | QVQLLESGGGLVQAGGSLRLSCAPSGFTYRYNAMVWYRQAPGIERELVAAISSRGGSTYYADSVKGRFTISRDNAKNTVYFQMNSLKPEDTGVYYCARDDWVYTNVEMDYWGQGTQVTVSS | high polyreactivity
40 | QVQLVESGGGLVQAGGSLRLSCAASGTTFPLYAMGWYRQAPGKERELVAAITSVGSTYYADSVKGRFTISRDNAKNTVYLQMNSLKPEDTAVYDCAAANYTYASRWYDYWGQGTQVTVSS | low polyreactivity
41 | QVQLVESVGGLVQAGGSLRLSCAASGYIFGHYTMRWYRQAPGKERELVAGISSGGITYYADSVKGRFTISRDNAKNTVYLQMNSLKPEDTAVYYCAVGTRVKYDYWGQGTQVTVSS | high polyreactivity
42 | QVQLVESGGGLVQAGGSLRLSCAASGRTFLRYTMGWYRQAPGKERELVAAITYSGGSTYYADSVKGRFTISRDNAKNTVYLQMNSLKPEDTAVYYCAASYLWGYTEYYYWGQGTQVTVSS | high polyreactivity
43 | QVHLVESGGGLVQAGGSLRLTCAASGSIFPYNAMGWYRQSPGEFVAAISYSSGSTYYADSVQGRFTISRDNAKYTVYLQMNCVIPDVTAVYYCAAGSWYPPSYVWLGRYDYWGQGTQVTVSS | low polyreactivity
